According to publication PMC11732463:

What was measured:
[1] = Western blot of microsomal fractions; details: glycan lost; control: WT CerS6 microsomes
[2] = in situ 17C-sphingosine labeling, LC/MS of 17C-Sph-C16:0-ceramide; details: glycan lost; control: WT CerS6 in CerS6 KO HCT116
[3] = in vitro microsomes, NBD-sphingosine + C16:0-CoA, HPLC; details: glycan lost; control: WT CerS6 microsomes

B1: ceramide synthase 6 (CerS6): N18A (protein)
parent chain: MAGILAWFWNERFWLPHNVTWADLKNTEEATFPQAEDLYLAFPLAFCIFMVRLIFERFVAKPCAIALNIQANGPQIAPPNAILEKVFTAITKHPDEKRLEGLSKQLDWDVRSIQRWFRQRRNQEKPSTLTRFCESMWRFSFYLYVFTYGVRFLKKTPWLWNTRHCWYNYPYQPLTTDLHYYYILELSFYWSLMFSQFTDIKRKDFGIMFLHHLVSIFLITFSYVNNMARVGTLVLCLHDSADALLEAAKMANYAKFQKMCDLLFVMFAVVFITTRLGIFPLWVLNTTLFESWEIVGPYPSWWVFNLLLLLVQGLNCFWSYLIVKIACKAVSRGKVSKDDRSDIESSSDEEDSEPPGKNPHTATTTNGTSGTNGYLLTGSCSMDD
In the case of B1, the expression_or_secretion [1] is reported as “increases”, the enzymatic_activity [2] is reported as “decreases, was approximately equal to that of LacZ expressing cells” and the enzymatic_activity [3] is reported as “decreases, N18A CerS6 activity is not statistically different than that of the LacZ microsomes”.
